This passage reports Kd results from publication PMC5127641 (2016).

Changes are numbered by the printed parent chain.

T1: Bfl-1, biotinylated (C-terminal avi-6His) (human, UniProt Q16548 1-175, biotin (enzymatic, BirA))
T1 chain: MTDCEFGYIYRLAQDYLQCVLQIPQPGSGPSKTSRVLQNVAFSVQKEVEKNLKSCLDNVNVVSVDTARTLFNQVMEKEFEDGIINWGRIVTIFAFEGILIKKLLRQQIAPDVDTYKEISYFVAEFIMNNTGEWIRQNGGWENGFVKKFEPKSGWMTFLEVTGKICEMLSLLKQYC

T2: Bcl-w, biotinylated (C-terminal avi-6His) (human, UniProt Q92843 1-193, biotin (enzymatic, BirA))
T2 chain: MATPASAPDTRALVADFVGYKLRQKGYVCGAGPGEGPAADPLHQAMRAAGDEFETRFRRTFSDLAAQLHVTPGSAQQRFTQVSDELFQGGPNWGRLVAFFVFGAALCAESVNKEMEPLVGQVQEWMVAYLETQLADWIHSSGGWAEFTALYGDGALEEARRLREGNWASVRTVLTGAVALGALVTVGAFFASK

T3: Bcl-B, biotinylated (C-terminal avi-6His) (human, UniProt Q9HD36 1-204, biotin (enzymatic, BirA))
T3 chain: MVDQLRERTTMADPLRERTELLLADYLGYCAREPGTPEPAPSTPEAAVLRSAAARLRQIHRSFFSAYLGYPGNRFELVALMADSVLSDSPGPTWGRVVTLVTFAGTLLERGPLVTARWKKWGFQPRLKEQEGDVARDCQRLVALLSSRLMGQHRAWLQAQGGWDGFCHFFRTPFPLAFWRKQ

T4: Mcl-1, biotinylated (C-terminal avi-6His) (human, UniProt Q07820 1-350, biotin (enzymatic, BirA))
T4 chain: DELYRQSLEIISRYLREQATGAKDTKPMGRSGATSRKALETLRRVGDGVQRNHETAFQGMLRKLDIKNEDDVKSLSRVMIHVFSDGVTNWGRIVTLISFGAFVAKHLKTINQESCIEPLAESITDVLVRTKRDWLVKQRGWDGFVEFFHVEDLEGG

B1: 2-CDP06 (Bcl-2-targeting Computationally Designed Protein) (designed binder)
chain: MADPKKVLDKAKDEAENRVRELKQKLEELYKEARKLDLTQEMRQELVDKARAASLQAIGDIFYAILRALAEAEKLKKAGLVNSQQLDELKRRLEELAEEARRKAEKLGDEFRLKLEYG
B2: X-CDP07 (Bcl-xL-targeting computationally designed protein) (designed binder)
chain: ADPKKVLDKAKDRAENVVRKLKKELEELYKEARKLDLTQEMRDRIRLAAIAARIAAFGDIFHAIMEALEEARKLKKAGLVNSQQLDELKRRLEELDEEAAQRAEKLGKEFELKLEY
B3: W-CDP03 (Bcl-w-targeting computationally designed protein) (designed binder)
chain: ADPKKVFDEAKDRAENNVRRLKQKLEELYKEARKKDLTQEEREKLKEKYKTAMAAAALAAIGDAFNALLKARKLHKNGQVNEQQLEELARRLQELAKEAFQKAKDYANEFEYKLEY
B4: B-CDP01 (Bcl-B-targeting computationally designed protein) (designed binder)
chain: ADPKKVLDKAKDQAENRVRELKQELERLYKEARKLDLTQEMRRKLEWRYIAAMLKAIGDILNAIAQAENEADKLKKAGLVNSQQLDELRRRLEELAKEAARKAHDYGREFQLKLEY
B5: F-ECM04 (enriched combinatorial mutant of F-CDP01) (designed binder)
chain: ADPKKVLDKAKDQAENRVRELKQKLEELYKEARKLDLTQEMRKKLEVAALGAVLAAHGDILNAIMQAKEEADKLKKAGLVNSQQLDELKRRLEELKEEALRKASDYGKEFHLKRRY
B6: F-CDP01 (Bfl-1-targeting computationally designed protein) (designed binder)
chain: ADPKKVLDKAKDQAENRVRELKQKLEELYKEARKLDLTQEMRKKLQYAAIGAMLAAIGDILNAIMQAKQEADKLKKAGLVNSQQLDELKRRLEELKEEALRKAHDYGSEFYLKLEY
B7: B-ECM01 (enriched combinatorial mutant of B-CDP01) (designed binder)
chain: B4 chain with V6I, A14V, E46H, W47V, G58A, D59A, A96T, K97E, R101Q

Sequence of Bcl-2, biotinylated (C-terminal avi-6His) (P10415 1-207): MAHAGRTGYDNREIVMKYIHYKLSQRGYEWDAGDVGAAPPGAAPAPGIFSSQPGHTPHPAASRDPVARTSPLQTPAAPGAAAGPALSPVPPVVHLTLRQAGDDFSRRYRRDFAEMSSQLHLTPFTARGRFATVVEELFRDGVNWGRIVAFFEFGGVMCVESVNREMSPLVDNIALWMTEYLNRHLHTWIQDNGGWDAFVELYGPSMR

One test concerns the target Bcl-2, biotinylated (C-terminal avi-6His) (human, UniProt P10415 1-239, biotin (enzymatic, BirA)). Nature of the test: BLI. On the technique in general: BLI is a label-free optical method that tracks binding on a fibre tip over time.
The Kd is the equilibrium constant for the complex coming apart. The low end stands for tighter binding, the high end for weaker binding. Take B1: the dissociation constant (Kd) was 9 nM.

In turn, B2 yielded a Kd of 4 nM.

In turn, B3 registered a dissociation constant Kd of 30 nM.

B4 gave a Kd of 17 nM.

For the next test, the target named is T1, Bfl-1, biotinylated (C-terminal …). Nature of the test: BLI.
The molecule B1 registered a Kd of over 50000 nM.

B5: the equilibrium dissociation constant (Kd) is 1.1 nM.

Turning to B2, the Kd is over 50000 nM.

For B6, the Kd amounted to 2 nM.

The molecule B3 displayed a Kd of 500 nM.

Turning to B7, the Kd came to 2400 nM.

B4 had a Kd of 520 nM.

The target of the next test is Bcl-xL, biotinylated (C-terminal avi-6His) (human, UniProt Q07817-1 1-233, biotin (enzymatic, BirA)). Nature of the test: BLI.
Sequence of Bcl-xL, biotinylated (C-terminal avi-6His) (Q07817 1-209): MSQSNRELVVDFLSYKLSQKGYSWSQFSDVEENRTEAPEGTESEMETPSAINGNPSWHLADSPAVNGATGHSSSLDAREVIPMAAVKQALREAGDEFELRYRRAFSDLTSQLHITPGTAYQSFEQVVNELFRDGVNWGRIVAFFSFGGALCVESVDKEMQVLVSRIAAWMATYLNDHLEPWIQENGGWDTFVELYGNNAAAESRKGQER
Take B1: the Kd stood at 12000 nM.

The molecule B5 gave a Kd of 540 nM.

B6 gave an equilibrium dissociation constant (Kd) of 11 nM.

As for B3, the Kd was determined as 7 nM.

Consider B7, for which the Kd was determined as 7800 nM.

Take B4: the Kd was determined as 20 nM.

The target in another test is T2, Bcl-w, biotinylated (C-terminal …). Briefly: BLI.
Regarding B1, the affinity, expressed as Kd, was 1700 nM.

In the case of B5, the Kd was 3800 nM.

B3 registered a dissociation constant (Kd) of 8 nM.

B4 displayed a Kd of 2000 nM.

In the next test the target is T3, Bcl-B, biotinylated (C-terminal …). Nature of the test: BLI.
B1: the Kd was over 50000 nM.

In turn, B5 had a dissociation constant Kd of 4000 nM.

B6 gave a Kd of 100000 nM.

B3: the Kd was 410 nM.

In turn, B7 registered a dissociation constant Kd of 80 nM.

Molecule B4 yielded a Kd of 8 nM.

For the next test, the target named is T4, Mcl-1, biotinylated (C-terminal …). Nature of the test: BLI.
In the case of B1, the Kd is over 50000 nM.

For B5, binding was put at a Kd of 300 nM.

B6: the equilibrium dissociation constant (Kd) was 4.6 nM.

In the case of B3, binding was put at a Kd of 57 nM.

For the molecule B4, the Kd was 0.46 nM.
